The record followed here is patent US11866760B2, “Microorganisms for the production of insect pheromones and related compounds” (Provivi, Inc., priority 2017, dated 2024).

In one series the test system is methyl palmitate. The experiment in a line: HaFAR mutant library cultivation in 24 well plates in Y. lipolytica SPV603. Format: cell-based, Yarrowia lipolytica. As to conditions: second FAR copy in SPV603, 24 well plates. How it is done: Four individual clones of positive integrants were tested. Cultivation was performed in 24 well plates. Briefly, 2 mL YPD was inoculated from patches of individual clones and incubated for 24 h at 28° C., 1000 rpm. After 24 h OD600 was measured and the cells were centrifuged at 1000 rpm (Table 23). The cell pellets were resuspended in 1 mL S2 media and 10 g/L methyl palmitate was added. The cells were incubated for 18 h at 28° C., 1000 rpm. Cultivations were stored at −20° C. until analyzed. Extraction and analysis was performed according to previously established standard protocols using GC-FID.
In a first round four individual isolate from each transformation was tested. Cultivation was performed in 24 well plates. 2 mL YPD was inoculated from patches of individual clones and incubated for 24 h at 28° C., 1000 rpm. After 24 h OD600 was measured and the cells were centrifuged at 1000 rpm. The cell pellets were resuspended in 1 mL S2 media and 10 g/L methyl palmitate was added. The cells were incubated for 24 h at 28° C., 1000 rpm. Cultivations were stored at −20° C. until analyzed. Next, four clones of the best performing positive integrant were tested. Cultivation was performed in 24 well plates. 2 mL YPD was inoculated from patches of individual clones and incubated for ˜28 h at 28° C., 1000 rpm. After 28 h OD600 was measured and the cells were centrifuged at 1000 rpm. The cell pellets were resuspended in 1 mL S2 media and 10 g/L methyl palmitate was added. The cells were incubated for 18 h at 28° C., 1000 rpm. Cultivations were stored at −20° C. until analyzed.
Cell pellets were resuspended with 500 μL 5% NaOH (in methanol) then heated for 1 hour at 85° C. Samples were cooled down and then acidified by adding 400 μL 5N HCl. Next, 500 μL chloroform (containing 1 mM C17:0 heptadecanoate internal standard) were added to samples. Samples were mixed vigorously then spun down for 2 minutes at 13,000 RPM using a table top centrifuge. 450 μL chloroform were transferred to a new vial then evaporated at 85° C. for ˜15 minutes. Samples were then resuspended in 50 μL BSTFA (and were now ready for GC analysis). After analysis of the fatty alcohols samples were diluted ˜1:10 and rerun on the GC to improve peak separation of the fatty acid peaks.
All quantifications were based on the concentration of the internal standard. The concentration of the internal standard C17ME is 1 mM. The final concentration of fatty alcohols as well as fatty acids were calculated based on the effective carbon number compared to the internal standard.

Another series has as its system S. cerevisiae ΔOLE1. The series is described as follows: ΔOLE1 growth complementation assay without UFA. Format: cell-based, Saccharomyces cerevisiae. The text has this:
S. cerevisiae ΔOLE1 (MATA OLE1::LEU2 ura3-52 his4) was used as an expression host. A synthetic expression cassette termed pOLE1 (FIG. 10, SEQ ID NO: 4) which comprises the OLE1 promoter region (SEQ ID NOs: 5 and 6), nucleotides encoding for 27 N-terminal amino acids of the OLE1 leader sequence (SEQ ID NO: 7), and a VPS13 terminator sequence (SEQ ID NO: 8) was created, and cloned into pESC-URA vector in between SacI and EcoRI sites. To test the functionality of the pOLE1 cassette, Dasher GFP synthon was inserted in between SpeI and NotI sites to create pOLE1-GFP plasmid. Competent ΔOLE1 was transformed with pOLE1-GFP, and plated on CM-Ura glucose agar plate (Teknova) containing UFA (20 mm CM-URA glucose agar plate was coated with 100 μL CM-Ura glucose medium containing 1% tergitol, and 3 μL palmitoleic acid). […] Validation of ΔOLE1 complementation was performed by restoring OLE1 activity. Specifically, native S. cerevisiae OLE1 synthon was inserted into pOLE1 cassette devoid of the leader sequence to create pOLE1-OLE1 plasmid. After transformation of ΔOLE1, and selection on CM-Ura glucose agar containing UFA, single colonies were patched onto YPD and CM-Ura glucose without UFA. After incubation at 30° C. for 5 days, growth was observed (FIG. 11A-FIG. 11E). As expected, Dasher GFP expression could not complement ΔOLE1 growth without UFA (FIG. 11A-FIG. 11E). DNA sequences which encode for desaturase variants were synthesized (to include nucleotide changes which remove restriction sites used for cloning purposes), and cloned into pOLE1 using SpeI-NotI sites (Genscript, SEQ ID NOs: 9-13). Complementation assay of ΔOLE1 with insect desaturases were performed in the same way as with OLE1 desaturase.

In a further series the test system is palmitic acid. The experiment in a line: in vivo bioconversion assay of desaturases in C. tropicalis SPV053. The format is cell-based, Candida tropicalis. How it is done: Functional expression of the heterologous desaturases was characterized by a series of in vivo bioconversion experiments. C. tropicalis SPV053 derived stains expressing insect desaturases were cultured in rich (YPD) or defined (CM glucose) media supplemented with ethanol (for induction) and saturated acid substrates (palmitic acid, methyl palmitate, methyl myristate). Small scale (2 ml) cultures were cultivated for a total of 72 hours in 24 deep well plates with substrate added after the initial 24 hours.
Positive isolates were re-patched onto YPD+300 μg/ml Zeocin and grown overnight and then stored at 4° C. Strains were inoculated from patch plates into 2 ml of YPD in 24 deep well plates (square well, pyramid bottom). Three positive clones were inoculated for each desaturase variant and the mCherry expressing control strain. Deep well plates were incubated at 30° C., 1000 rpm, and 80% humidity in the Infors HT Multitron Pro plate shaker for 24 hrs. After 24 hrs of incubation, cultures were split into equal 1 ml volumes to make two sets of identical plates. Both sets of plates were pelleted by centrifugation at 500×g. One set of plates was resuspended in 2 ml of YPD+0.3% (v/v) ethanol and the second set was resuspended in 2 ml of CM glucose+0.3% ethanol. Ethanol was added at this stage to induce recombinant enzyme expression from the ICL promoter. Cultures were incubated for another 24 hours under the same conditions before 300 mg/L palmitic acid was added to cultures from a 90 g/L stock solution in ethanol. The result was the addition of a fresh 0.3% ethanol in conjunction with the palmitic acid. A subset of strains was also cultured without palmitic acid addition. These cultures had 0.3% ethanol added instead. All cultures were incubated for an additional 24 hrs before a final addition of 0.3% ethanol. After another 24 hr period of incubation, 1.5 ml of each culture was harvested in 1.7 ml microcentrifuge tubes and pelleted. Supernatant was saved in fresh tubes and pellets were processed as described below. A subset of supernatant samples was also extracted to look for free acid in the extracellular medium.
The mCherry control and confirmed positive variants were rescreened using both palmitic acid and methyl palmitate as substrates. The culturing was conducted as described above with equimolar (1.17 mM) amounts of substrate added from ethanol stock solutions (methyl palmitate 94 g/L stock, 313 mg/L final concentration). The same protocol was also repeated with the full panel of strains using an 84 g/L stock of methyl myristate (C14:0). The final concentration of substrate was again 1.17 mM.
The in vivo bioconversion assay was scaled up for confirmation of (Z)-11-hexadecenoic acid synthesis. 2 ml YPD seed cultures of strains SPV0302, SPV0303, and SPV0304 (mCherry), […], SPV0305, and SPV0306 (A. transitella Z11 desaturase), and SPV0307, SPV0308, and SPV0309 (H. zea Z11 desaturase) were grown overnight at 30° C., 1000 rpm, 80% humidity in the Infors HT Multitron plate shaker. 200 μl of overnight culture from each of the three clonal isolates was pooled and inoculated into a single 125 ml baffled flask containing 20 ml YPD. The resulting three flasks were grown for 24 hrs at 30° C. and 250 rpm (Infors Flask shaker). Cultures were pelleted by centrifugation at 500×g and resuspended in 20 ml of YPD+0.3% (v/v) ethanol and returned to 125 ml baffled shake flasks. Cultures were incubated for an additional 24 hours before addition of 300 mg/L palmitic acid in a 90 g/L stock in ethanol (221 μl per flask). After 24 hours of incubation another 0.3% (v/v) ethanol (221 μl) was added to each flask for sustained induction. Flasks were incubated for an additional 24 hours before cells were harvested for FAME analysis and DMDS derivatization.
Total lipid composition as well as the (Z)-11-hexadecenoic acid quantification was based on modified procedures by Moss et al. (1982) and Yousuf et al (2010). […]

Setting [1] is: SPV053, supplementation not stated.

B1: HaFAR (S60A) (protein)
chain: MVVLTSKETKPSVAEFYAGKSVFITGGTGFLGKVFIEKLLYSCPDIENIYMLIREKKGLAVSERIKQFLDDPLFTRLKDKRPADLEKIVLIPGDITAPDLGINSENEKMLIEKVSVIIHSAATVKFNEPLPTAWKINVEGTRMMLALSRRMKRIEVFIHISTAYTNTNREVVDEILYPAPADIDQVHQYVKDGISEEDTEKILNGRPNTYTFTKALTEHLVAENQAYVPTIIVRPSVVAAIKDEPLKGWLGNWFGATGLTVFTAKGLNRVIYGHSSYIVDLIPVDYVANLVIAAGAKSSKSTELKVYNCCSSSCNPVTIGTLMSMFADDAIKQKSYAMPLPGWYIFTKYKWLVLLLTFLFQVIPAYVTDLSRHLIGKSPRYIKLQSLVNQTRSSIDFFTNHSWVMKADRVRELYASLSPADKYLFPCDPTDINWTHYIQDYCWGVRHFLEKKSYE
On to B1, for which the “Z11-16OH titers compared to the HaFAR double copy strain” value in the series with methyl palmitate is reported as “neutral or showed slight increases”.

B2: HaFAR (S453A) (protein)
chain: MVVLTSKETKPSVAEFYAGKSVFITGGTGFLGKVFIEKLLYSCPDIENIYMLIREKKGLSVSERIKQFLDDPLFTRLKDKRPADLEKIVLIPGDITAPDLGINSENEKMLIEKVSVIIHSAATVKFNEPLPTAWKINVEGTRMMLALSRRMKRIEVFIHISTAYTNTNREVVDEILYPAPADIDQVHQYVKDGISEEDTEKILNGRPNTYTFTKALTEHLVAENQAYVPTIIVRPSVVAAIKDEPLKGWLGNWFGATGLTVFTAKGLNRVIYGHSSYIVDLIPVDYVANLVIAAGAKSSKSTELKVYNCCSSSCNPVTIGTLMSMFADDAIKQKSYAMPLPGWYIFTKYKWLVLLLTFLFQVIPAYVTDLSRHLIGKSPRYIKLQSLVNQTRSSIDFFTNHSWVMKADRVRELYASLSPADKYLFPCDPTDINWTHYIQDYCWGVRHFLEKKAYE
Take B2: the “Z11-16OH titers compared to the HaFAR double copy strain” value in the series on methyl palmitate was “neutral or showed slight increases”.

B3: HaFAR (S298A) (protein)
chain: MVVLTSKETKPSVAEFYAGKSVFITGGTGFLGKVFIEKLLYSCPDIENIYMLIREKKGLSVSERIKQFLDDPLFTRLKDKRPADLEKIVLIPGDITAPDLGINSENEKMLIEKVSVIIHSAATVKFNEPLPTAWKINVEGTRMMLALSRRMKRIEVFIHISTAYTNTNREVVDEILYPAPADIDQVHQYVKDGISEEDTEKILNGRPNTYTFTKALTEHLVAENQAYVPTIIVRPSVVAAIKDEPLKGWLGNWFGATGLTVFTAKGLNRVIYGHSSYIVDLIPVDYVANLVIAAGAKASKSTELKVYNCCSSSCNPVTIGTLMSMFADDAIKQKSYAMPLPGWYIFTKYKWLVLLLTFLFQVIPAYVTDLSRHLIGKSPRYIKLQSLVNQTRSSIDFFTNHSWVMKADRVRELYASLSPADKYLFPCDPTDINWTHYIQDYCWGVRHFLEKKSYE
As for B3, the “Z11-16OH titers compared to the HaFAR double copy strain” value in the series with methyl palmitate is “neutral or showed slight increases”.

B4: A. transitella desaturase: Amyelois transitella Z11 desaturase (JX964774) (protein, listed as Amyelois transitella)
chain: MVPNKGSSDVLSEHSEPQFTKLIAPQAGPRKYKIVYRNLLTFGYWHLSAVYGLYLCFTCAKWATILFAFFLYVIAEIGITGGAHRLWAHRTYKAKLPLEILLLIMNSIAFQDTAFTWARDHRLHHKYSDTDADPHNATRGFFYSHVGWLLVKKHPEVKARGKYLSLDDLKNNPLLKFQKKYAILVIGTLCFLMPTFVPVYFWGEGISTAWNINLLRYVMNLNMTFLVNSAAHIFGNKPYDKSIASVQNISVSLATFGEGFHNYHHTYPWDYRAAELGNNRLNMTTAFIDFFAWIGWAYDLKSVPQEAIAKRCAKTGDGTDMWGRKR
For the molecule B4, in the series on S. cerevisiae ΔOLE1 (minimal medium (CM-Ura glucose) agar plate), the “rescue of ΔOLE1 growth without UFA” value is “conferred growth without UFA”. Also, in the series on S. cerevisiae ΔOLE1 (rich medium (YPD) agar plate), the “rescue of ΔOLE1 growth without UFA” value is reported as “conferred growth without UFA”. In addition, the “(Z)-11-hexadecenoic acid titer” value in the series with palmitic acid (SPV053) is “approximately 5.62 mg/L”. Also, the “activity on myristoyl-CoA” value in the series on palmitic acid (SPV053, methyl myristate substrate) is “some activity on myristoyl-CoA”. Besides, in the series with palmitic acid (setting [1]), the “(Z)-9-hexadecenoic acid in C16-fatty acid composition” value is 14.5%, the “(Z)-11-hexadecenoic acid in C16-fatty acid composition” value was 30.0% and the “hexadecanoic acid in C16-fatty acid composition” value came to 55.5%.
